Two substances from paper PMC3062207 can be followed below.

The target of assay [1] is YU2gp140:gpD fusion protein (HIV-1 isolate YU2 | bacteriophage T4 | bacteriophage lambda). Put plainly: SEC. For orientation: SEC sorts molecules by how far they enter the pores of the column.
Assay [2] has as its target YU2gp140 (cleavage-deficient, trimeric HIV-1 Env gp140 with T4 fibritin trimerization motif) (HIV-1 isolate YU2 | bacteriophage T4). Put plainly: SEC.

A word on the stoichiometry N: it is a count of units in the complex or per binding partner. The substance YU2gp140:gpD fusion protein gave a stoichiometry N in assay [1] of 3.
In the case of “YU2gp140 (cleavage-deficient, trimeric HIV-1 Env gp140 with T4 fibritin trimerization motif)”, the stoichiometry N in assay [2] turned out to be 3.
